Results on one substance are retold here after paper PMC10314698.

One may read the Kd as the constant that tells how readily two partners part at equilibrium. Read a high Kd as lower affinity. As a reminder, the koff is the first-order rate constant of dissociation.

The target of this assay is soluble BCMA (B-cell maturation antigen) (UniProt Q02223). Kind of assay: SPR. (In general: SPR reads the build-up and loss of mass on a sensor chip optically.)
soluble BCMA (B-cell maturation antigen), sequence (Q02223 1-54): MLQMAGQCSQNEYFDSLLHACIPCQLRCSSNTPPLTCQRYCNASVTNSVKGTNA

LCAR-B38M (Nanjing_GSI5022_Dual_VHH) showed a Kd of 2.89 nM and a koff of 0.0162 s⁻¹.
